Reference: patent EP4471048A1, “PEPTIDE INHIBITORS OF INTERLEUKIN-23 RECEPTOR” (Zealand Pharma A/S, priority 2023, dated 2024)
*1 amine or outer side, *2 acyl side, *3 side chain or, on linkers, in order; H or OH if unused. Bridges are numbered along the chain shown (N, C = ends). [ ]: non-standard residue; d: D form. The star is where a group is joined. K(G) = Lys(Gly): lysine with a glycine on the side-chain amine, (2S)-2-amino-6-[(2-aminoacetyl)amino]hexanoic acid, O=C(CN[*:3])NCCCC[C@H](N[*:1])C(=O)[*:2]; 4‑Aminomethyl‑phenylacetyl = 4-aminomethyl-phenylacetyl unit, its amine closes the lactam, O=C(Cc1ccc(CN[*:1])cc1)[*:2]; γDab = iso-Dab: Dab joined to preceding residue by its side-chain amine, O=C([C@H](CCN[*:1])N[*:3])[*:2]; Q(pyrrolidin) = modified Gln, O=C(CC[C@H](N[*:1])C(=O)[*:2])N1CCCC1; 2‑Amino‑6‑carboxyhexanoyl = 2-aminoheptanedioic acid residue; Propanoyl(3-(3-pyridyl)) = O=C(CCc1cccnc1)*; NH(4-(3-pyridyl)butyl) = c1cncc(CCCCN*)c1; NH(2-(3-pyridyl)ethyl) = c1cncc(CCN*)c1; Phe(4-Me) = Cc1ccc(C[C@H](N)C(=O)O)cc1; 2Nal = N[C@@H](Cc1ccc2ccccc2c1)C(=O)O; AEF = NCCOc1ccc(C[C@H](N)C(=O)O)cc1; 3Pal = N[C@@H](Cc1cccnc1)C(=O)O; β3hE = N[C@@H](CCC(=O)O)CC(=O)O; Aad = N[C@@H](CCCC(=O)O)C(=O)O; αMeL = CC(C)C[C@](C)(N)C(=O)O; dOrn = NCCC[C@@H](N)C(=O)O; dDab = NCC[C@@H](N)C(=O)O; Orn = NCCC[C@H](N)C(=O)O; Dab = NCC[C@H](N)C(=O)O; βAla = NCCC(=O)O

T1: Nluc-IL23R fusion protein (human, UniProt Q5VWK5 22-629)
T1 construct: range 22-629; Stably expressed in HEK293 cells; also called hIL-23R; human IL-23R; not shown: Nanoluc protein (N1371, Promega) at the N-terminus, after a secretion signal
T1 sequence (looked up): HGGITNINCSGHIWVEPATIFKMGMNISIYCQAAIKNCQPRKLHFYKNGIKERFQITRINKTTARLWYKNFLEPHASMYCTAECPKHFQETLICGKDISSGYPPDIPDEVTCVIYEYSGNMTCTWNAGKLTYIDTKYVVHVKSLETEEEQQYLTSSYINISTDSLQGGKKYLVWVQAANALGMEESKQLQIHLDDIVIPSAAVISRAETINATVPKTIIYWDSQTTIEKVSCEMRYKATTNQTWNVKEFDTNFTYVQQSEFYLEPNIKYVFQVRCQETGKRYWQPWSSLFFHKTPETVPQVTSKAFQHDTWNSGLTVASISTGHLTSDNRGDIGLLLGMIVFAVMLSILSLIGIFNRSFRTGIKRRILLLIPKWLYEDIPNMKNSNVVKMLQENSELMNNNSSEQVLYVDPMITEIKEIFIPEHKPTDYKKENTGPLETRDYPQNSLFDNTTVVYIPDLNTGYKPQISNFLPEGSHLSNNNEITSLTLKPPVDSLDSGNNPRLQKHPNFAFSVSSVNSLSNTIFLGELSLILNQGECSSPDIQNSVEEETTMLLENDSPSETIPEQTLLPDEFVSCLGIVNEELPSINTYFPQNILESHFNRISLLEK

T2: human IL-23R endogenously expressed on DB cells (human, UniProt Q5VWK5 24-629)
T2 sequence (looked up): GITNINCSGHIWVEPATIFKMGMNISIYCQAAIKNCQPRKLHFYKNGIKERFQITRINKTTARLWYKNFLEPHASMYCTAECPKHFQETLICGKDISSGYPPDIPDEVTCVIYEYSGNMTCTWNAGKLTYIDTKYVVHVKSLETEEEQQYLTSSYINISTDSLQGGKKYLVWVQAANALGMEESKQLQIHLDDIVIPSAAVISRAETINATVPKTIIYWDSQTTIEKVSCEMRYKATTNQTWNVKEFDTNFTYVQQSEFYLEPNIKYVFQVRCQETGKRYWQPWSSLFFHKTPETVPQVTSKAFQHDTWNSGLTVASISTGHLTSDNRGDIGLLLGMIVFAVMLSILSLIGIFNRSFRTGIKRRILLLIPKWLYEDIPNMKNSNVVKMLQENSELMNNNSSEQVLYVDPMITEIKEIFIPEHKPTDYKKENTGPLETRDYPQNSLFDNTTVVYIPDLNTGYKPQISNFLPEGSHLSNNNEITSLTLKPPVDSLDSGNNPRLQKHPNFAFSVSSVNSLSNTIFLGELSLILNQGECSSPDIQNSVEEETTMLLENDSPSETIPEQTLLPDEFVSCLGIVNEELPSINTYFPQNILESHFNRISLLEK

B1: Ref 146 (peptide)
peptide: [4‑Aminomethyl‑phenylacetyl]SEW[Q(pyrrolidin)][Dab][AEF][2Nal][αMeL]E[Dab]-NH2
modifications: lactam N-10; bridge 3-6; also: (2c) bridge type not defined
B2: Compound 7 (peptide)
peptide: [dDab]TVWQE[AEF][2Nal][αMeL][2‑Amino‑6‑carboxyhexanoyl][Dab][3Pal]-NH2
modifications: lactam 1-10, N-6
B3: Compound C (peptide)
peptide: XQTWQCXWXENG
modifications: [Ac]-[Abu](16i)QTWQC(16i)[Y(2-aminoethoxy)]W[2-Me-Lys]ENG-[NH2]; (16i) [2,7] thioether bridge (Abu and Cys form a cystathionine)
B4: Compound 6 (peptide)
peptide: [dOrn]TVWQE[AEF][2Nal][αMeL][Aad][Dab][3Pal]-NH2
modifications: lactam 1-10, N-6
SMILES: CC(C)C[C@]1(C)NC(=O)[C@H](Cc2ccc3ccccc3c2)NC(=O)[C@H](Cc2ccc(OCCN)cc2)NC(=O)[C@@H]2CCC(=O)N[C@H](CCCNC(=O)CCC[C@@H](C(=O)N[C@@H](CCN)C(=O)N[C@@H](Cc3cccnc3)C(N)=O)NC1=O)C(=O)N[C@@H]([C@@H](C)O)C(=O)N[C@@H](C(C)C)C(=O)N[C@@H](Cc1c[nH]c3ccccc13)C(=O)N[C@@H](CCC(N)=O)C(=O)N2
B5: Compound 24 (peptide)
peptide: KTVWQE[Phe(4-Me)][2Nal][αMeL][γDab](Propanoyl(3-(3-pyridyl)))
modifications: lactam 1-C, N-6; also: iso-Dab joined to preceding residue via its side-chain amine
B6: Compound 45 (peptide)
peptide: K[βAla]WQE[AEF][2Nal][αMeL]E[Dab][3Pal]-NHMe
modifications: lactam 1-9, N-5
SMILES: CNC(=O)[C@H](Cc1cccnc1)NC(=O)[C@H](CCN)NC(=O)[C@@H]1CCC(=O)NCCCC[C@@H]2NC(=O)CC[C@H](NC(=O)[C@H](CCC(N)=O)NC(=O)[C@H](Cc3c[nH]c4ccccc34)NC(=O)CCNC2=O)C(=O)N[C@@H](Cc2ccc(OCCN)cc2)C(=O)N[C@@H](Cc2ccc3ccccc3c2)C(=O)N[C@@](C)(CC(C)C)C(=O)N1
B7: Compound 39 (peptide)
peptide: ETWQE[AEF][2Nal][αMeL]K[Dab][3Pal]-NHMe
modifications: lactam 1-9, N-5
SMILES: CNC(=O)[C@H](Cc1cccnc1)NC(=O)[C@H](CCN)NC(=O)[C@@H]1CCCCNC(=O)CC[C@@H]2NC(=O)CC[C@H](NC(=O)[C@H](CCC(N)=O)NC(=O)[C@H](Cc3c[nH]c4ccccc34)NC(=O)[C@H]([C@@H](C)O)NC2=O)C(=O)N[C@@H](Cc2ccc(OCCN)cc2)C(=O)N[C@@H](Cc2ccc3ccccc3c2)C(=O)N[C@@](C)(CC(C)C)C(=O)N1
B8: Compound 46 (peptide)
peptide: [K(G)]WQE[AEF][2Nal][αMeL]E[Dab][3Pal]-NHMe
modifications: lactam 1-8, N-4
SMILES: CNC(=O)[C@H](Cc1cccnc1)NC(=O)[C@H](CCN)NC(=O)[C@@H]1CCC(=O)NCC(=O)NCCCC[C@@H]2NC(=O)CC[C@H](NC(=O)[C@H](CCC(N)=O)NC(=O)[C@H](Cc3c[nH]c4ccccc34)NC2=O)C(=O)N[C@@H](Cc2ccc(OCCN)cc2)C(=O)N[C@@H](Cc2ccc3ccccc3c2)C(=O)N[C@@](C)(CC(C)C)C(=O)N1
B9: Compound 44 (peptide)
peptide: KGWQE[AEF][2Nal][αMeL]E[Dab][3Pal]-NHMe
modifications: lactam 1-9, N-5
SMILES: CNC(=O)[C@H](Cc1cccnc1)NC(=O)[C@H](CCN)NC(=O)[C@@H]1CCC(=O)NCCCC[C@@H]2NC(=O)CC[C@H](NC(=O)[C@H](CCC(N)=O)NC(=O)[C@H](Cc3c[nH]c4ccccc34)NC(=O)CNC2=O)C(=O)N[C@@H](Cc2ccc(OCCN)cc2)C(=O)N[C@@H](Cc2ccc3ccccc3c2)C(=O)N[C@@](C)(CC(C)C)C(=O)N1
B10: Compound 107 (peptide)
peptide: EWQEXXXXXX
modifications: [iso-Glu](1c)^‡(6c)^†WQE(6c)[Y(2-aminoethoxy)][2-Nal][2-Me-Leu][Dab](1c)[Dab][3-(3-Pyridyl)-Ala]-[NHMe]; (1c) [2,11] lactam; (6c) [2,7] lactam; ^† alpha-amine in bridge; ^‡ alpha-carboxylic acid in bridge
B11: Compound 25 (peptide)
peptide: KTVWQE[Phe(4-Me)][2Nal][αMeL][γDab](6‑(3-pyridyl)hexanoyl)
modifications: lactam 1-C, N-6; also: iso-Dab joined to preceding residue via its side-chain amine
B12: Compound 31 (peptide)
peptide: KSVWQE[AEF][2Nal]GE-{NH(4-(3-pyridyl)butyl)}
modifications: lactam 1-10, N-6
SMILES: CC(C)[C@@H]1NC(=O)[C@H](CO)NC(=O)[C@@H]2CCCCNC(=O)CC[C@@H](C(=O)NCCCCc3cccnc3)NC(=O)CNC(=O)[C@H](Cc3ccc4ccccc4c3)NC(=O)[C@H](Cc3ccc(OCCN)cc3)NC(=O)[C@H](CCC(=O)N2)NC(=O)[C@H](CCC(N)=O)NC(=O)[C@H](Cc2c[nH]c3ccccc23)NC1=O
B13: Compound 9 (peptide)
peptide: [dDab]TVWQD[AEF][2Nal][αMeL][2‑Amino‑6‑carboxyhexanoyl][Dab][3Pal]-NH2
modifications: lactam 1-10, N-6
B14: Compound 65 (peptide)
peptide: KIVWQE[AEF][2Nal][αMeL][β3hE]-{NH(2-(3-pyridyl)ethyl)}
modifications: lactam 1-10, N-6
B15: Compound 40 (peptide)
peptide: ETWQE[AEF][2Nal][αMeL][Orn][Dab][3Pal]-NHMe
modifications: lactam 1-9, N-5
B16: Compound 74 (peptide)
peptide: EIVWQEXXXXXX
modifications: E(1c)(6c)^†IVWQE(6c)[Y(2-aminoethoxy)][2-Nal][2-Me-Leu][K(Me)](1c)[Dab][3-(3-Pyridyl)-Ala]-[NHMe]; (1c) [2,11] lactam; (6c) [2,7] lactam; ^† alpha-amine in bridge
B17: Compound 15 (peptide)
peptide: [dDab]TWQD[AEF][2Nal][αMeL][2‑Amino‑6‑carboxyhexanoyl][Dab][3Pal]-NH2
modifications: lactam 1-9, N-5
B18: Compound 61 (peptide)
peptide: KIVWQE[AEF][2Nal][αMeL][β3hE][3Pal]-NHMe
modifications: lactam 1-10, N-6
notes: The partner of the (1c) bridge is printed as (cyclo1)

Biological target: T1, Nluc-IL23R fusion protein
Assay: BRET competition vs TAMRA-labelled peptide, Nluc-IL23R membranes; Ki by Cheng-Prusoff

Ki [nM]	Molecule
1.01	B1

Biological target: T2, human IL-23R endogenously expressed on …
Assay: cell-based or functional assay

hIL-23 (pSTAT3) antagonist % inhibition [%]	hIL-23 (pSTAT3) antagonist IC50 [nM]	Molecule
99	0.19	B2
98	42	B1
99	13	B3
104	0.22	B4
99	100	B5
100	0.058	B6
99	2.4	B7
102	25	B8
100	15	B9

Biological target: T1, Nluc-IL23R fusion protein
Assay: BRET competition vs TAMRA-labelled peptide, Nluc-IL23R membranes

% displacement [%]	IC50 [nM]	Molecule
104	–	B2
102	–	B3
97	14	B10
91	840	B11
98	49	B12
104	–	B4
103	–	B13
96	280	B5
99	–	B14
100	–	B15
99	0.076	B16
105	4.9	B17
99	–	B18

Biological target: human IL-23R endogenously expressed on DB cells (human) (UniProt Q5VWK5)
Assay: cell-based or functional assay

EC80 of hIL-23 (phospho-STAT3 in DB cells) [nM]	Molecule
1.7	human IL-23 (from UniProt Q9NPF7 20-189; P29460 23-328) (ligand)

Biological target: T1, Nluc-IL23R fusion protein
Assay: BRET competition vs TAMRA-labelled peptide, Nluc-IL23R membranes
Remark: another data set of the same source

% displacement [%]	IC50 [nM]	Molecule
105	1.2	B1
100	–	B6
98	–	B7
104	–	B8
100	–	B9
